Results taken from article PMC9482650, “Quantitative fragmentomics allow affinity mapping of interactomes” (Nature Communications, 2022).

T1: MPP2, Q14168
T1 sequence (Q14168 180-250, limits assumed, looked up): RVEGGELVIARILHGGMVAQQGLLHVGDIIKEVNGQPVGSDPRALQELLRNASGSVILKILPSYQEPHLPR

T2: GRIP1_2, Q9Y3R0
T2 sequence (Q9Y3R0 145-248, limits assumed, looked up): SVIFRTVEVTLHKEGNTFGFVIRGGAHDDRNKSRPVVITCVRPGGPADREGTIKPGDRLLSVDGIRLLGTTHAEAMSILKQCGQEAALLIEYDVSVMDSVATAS

T3: PDZRN3_1, Q9UPQ7
T3 sequence (Q9UPQ7 244-349, limits assumed, looked up): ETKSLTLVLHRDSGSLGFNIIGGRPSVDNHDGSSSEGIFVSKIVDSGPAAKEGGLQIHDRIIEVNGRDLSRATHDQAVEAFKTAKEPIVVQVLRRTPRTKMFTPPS

T4: ARHGAP21, Q5T5U3
T4 sequence (Q5T5U3 45-169, limits assumed, looked up): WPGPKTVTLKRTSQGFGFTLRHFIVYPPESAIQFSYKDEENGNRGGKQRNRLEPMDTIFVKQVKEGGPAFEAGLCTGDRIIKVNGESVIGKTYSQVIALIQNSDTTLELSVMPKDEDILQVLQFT

T5: SHANK1, Q9Y566
T5 sequence (Q9Y566 658-767, limits assumed, looked up): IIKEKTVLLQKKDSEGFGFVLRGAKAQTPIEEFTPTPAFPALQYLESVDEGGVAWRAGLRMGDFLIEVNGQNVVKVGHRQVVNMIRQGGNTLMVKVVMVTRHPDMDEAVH

T6: SNTB1, Q13884
T6 sequence (Q13884 107-205, limits assumed, looked up): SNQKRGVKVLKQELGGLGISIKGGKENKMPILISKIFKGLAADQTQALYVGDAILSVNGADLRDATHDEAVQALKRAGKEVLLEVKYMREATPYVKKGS

T7: TX1BP3, O14907
T7 sequence (O14907 10-122, limits assumed, looked up): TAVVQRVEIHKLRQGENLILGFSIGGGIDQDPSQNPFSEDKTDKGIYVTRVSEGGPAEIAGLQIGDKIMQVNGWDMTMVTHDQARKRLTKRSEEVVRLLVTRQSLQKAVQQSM

T8: DFNB31_2, Q9P202
T8 sequence (Q9P202 274-371, limits assumed, looked up): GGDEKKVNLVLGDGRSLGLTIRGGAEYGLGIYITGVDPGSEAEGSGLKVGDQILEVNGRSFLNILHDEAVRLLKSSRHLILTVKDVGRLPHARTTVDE

T9: PARD3B_1, Q8TEW8
T9 sequence (Q8TEW8 196-299, limits assumed, looked up): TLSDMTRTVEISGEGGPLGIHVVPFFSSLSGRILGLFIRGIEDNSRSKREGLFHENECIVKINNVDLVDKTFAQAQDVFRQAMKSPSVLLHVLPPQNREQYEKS

T10: HTRA4, P83105
T10 sequence (P83105 378-476, limits assumed, looked up): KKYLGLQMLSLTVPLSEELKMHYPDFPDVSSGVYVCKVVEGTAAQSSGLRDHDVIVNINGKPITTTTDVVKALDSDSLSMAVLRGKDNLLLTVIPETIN


Columns and labels:
Test in all cases: holdup assay
Set-up in all cases: key: below the threshold = too weak to quantify, mostly under pKd 3.1 to 4
Settings in all cases: plain residues with an end cap or a label only (N-terminal biotin on a linker: ado-ado)
DLG5_1, Q8TDM6 = target: DLG5_1, Q8TDM6
MPP2, Q14168 = target: T1, MPP2, Q14168
Inadl_3, Q8NI35 = target: Inadl_3, Q8NI35
GRASP, Q7Z6J2 = target: GRASP, Q7Z6J2
GRIP1_2, Q9Y3R0 = target: T2, GRIP1_2, Q9Y3R0
PDZRN3_1, Q9UPQ7 = target: T3, PDZRN3_1, Q9UPQ7
ARHGAP21, Q5T5U3 = target: T4, ARHGAP21, Q5T5U3
IL16_4, Q14005 = target: IL16_4, Q14005
DLG2_2, Q15700 = target: DLG2_2, Q15700
SHANK1, Q9Y566 = target: T5, SHANK1, Q9Y566
SNTB1, Q13884 = target: T6, SNTB1, Q13884
MAGI2_5, Q86UL8 = target: MAGI2_5, Q86UL8
NHERF2_2, Q15599 = target: NHERF2_2, Q15599
GRIP2_3, Q9C0E4 = target: GRIP2_3, Q9C0E4
TX1BP3, O14907 = target: T7, TX1BP3, O14907
DFNB31_2, Q9P202 = target: T8, DFNB31_2, Q9P202
LAP2, Q96RT1 = target: LAP2, Q96RT1
PARD3B_1, Q8TEW8 = target: T9, PARD3B_1, Q8TEW8
GOPC, Q9HD26 = target: GOPC, Q9HD26
PARD3_3, Q8TEW0 = target: PARD3_3, Q8TEW0
MAGI1_1, Q96QZ7 = target: MAGI1_1, Q96QZ7
HTRA4, P83105 = target: T10, HTRA4, P83105
MAGI3_2, Q5TCQ9 = target: MAGI3_2, Q5TCQ9
HTRA2, O43464 = target: HTRA2, O43464
FRMPD2_2, Q68DX3 = target: FRMPD2_2, Q68DX3
Inadl_4, Q8NI35 = target: Inadl_4, Q8NI35
Sequence of Inadl_4, Q8NI35 (Q8NI35 547-651): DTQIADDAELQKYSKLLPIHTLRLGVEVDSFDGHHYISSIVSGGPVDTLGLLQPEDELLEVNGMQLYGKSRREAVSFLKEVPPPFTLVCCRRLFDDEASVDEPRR

Sequence of NHERF2_2, Q15599 (Q15599 142-238): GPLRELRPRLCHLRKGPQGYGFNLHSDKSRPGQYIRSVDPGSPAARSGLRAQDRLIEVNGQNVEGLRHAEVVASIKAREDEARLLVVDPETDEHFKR
Sequence of IL16_4, Q14005 (Q14005 1229-1329): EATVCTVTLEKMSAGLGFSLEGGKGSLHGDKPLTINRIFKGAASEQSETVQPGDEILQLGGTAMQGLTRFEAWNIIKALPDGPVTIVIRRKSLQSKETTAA
Sequence of LAP2, Q96RT1 (Q96RT1 other isoform, or with tags, fused parts or gaps): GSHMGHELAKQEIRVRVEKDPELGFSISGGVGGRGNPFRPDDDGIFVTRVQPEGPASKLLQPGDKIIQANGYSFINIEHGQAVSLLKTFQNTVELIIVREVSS
Sequence of PARD3_3, Q8TEW0 (Q8TEW0 582-685): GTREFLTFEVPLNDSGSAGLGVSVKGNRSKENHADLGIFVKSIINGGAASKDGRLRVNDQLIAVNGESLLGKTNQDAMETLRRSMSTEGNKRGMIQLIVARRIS
Sequence of MAGI1_1, Q96QZ7 (Q96QZ7 1-106): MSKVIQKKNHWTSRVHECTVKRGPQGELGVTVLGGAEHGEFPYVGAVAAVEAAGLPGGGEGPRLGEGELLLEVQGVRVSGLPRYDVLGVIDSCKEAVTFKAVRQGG
Sequence of Inadl_3, Q8NI35 (Q8NI35 359-469): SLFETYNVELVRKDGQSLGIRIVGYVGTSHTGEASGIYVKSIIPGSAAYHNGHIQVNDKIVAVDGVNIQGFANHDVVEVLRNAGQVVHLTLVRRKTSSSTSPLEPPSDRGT
Sequence of HTRA2, O43464 (O43464 355-458): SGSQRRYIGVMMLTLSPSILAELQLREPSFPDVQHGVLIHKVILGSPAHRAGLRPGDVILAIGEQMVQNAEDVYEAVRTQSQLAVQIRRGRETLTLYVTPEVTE
Sequence of GRIP2_3, Q9C0E4 (Q9C0E4 238-339): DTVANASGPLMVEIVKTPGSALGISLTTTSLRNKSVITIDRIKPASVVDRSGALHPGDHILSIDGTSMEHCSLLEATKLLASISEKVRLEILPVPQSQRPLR
Sequence of FRMPD2_2, Q68DX3 (Q68DX3 944-1038): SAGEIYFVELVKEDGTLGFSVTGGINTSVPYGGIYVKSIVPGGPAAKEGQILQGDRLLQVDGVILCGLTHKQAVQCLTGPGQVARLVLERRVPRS
Sequence of DLG2_2, Q15700 (Q15700 189-283): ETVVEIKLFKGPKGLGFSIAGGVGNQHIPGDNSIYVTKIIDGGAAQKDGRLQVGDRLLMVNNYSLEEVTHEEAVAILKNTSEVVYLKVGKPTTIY
Sequence of MAGI2_5, Q86UL8 (Q86UL8 915-1017): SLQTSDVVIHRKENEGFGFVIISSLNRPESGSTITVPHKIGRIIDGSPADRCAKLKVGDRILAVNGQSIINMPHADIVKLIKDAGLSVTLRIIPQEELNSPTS
Sequence of DLG5_1, Q8TDM6 (Q8TDM6 617-713): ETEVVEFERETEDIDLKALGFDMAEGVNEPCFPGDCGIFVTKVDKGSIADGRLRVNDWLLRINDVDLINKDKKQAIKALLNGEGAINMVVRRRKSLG
Sequence of GRASP, Q7Z6J2 (Q7Z6J2 96-193): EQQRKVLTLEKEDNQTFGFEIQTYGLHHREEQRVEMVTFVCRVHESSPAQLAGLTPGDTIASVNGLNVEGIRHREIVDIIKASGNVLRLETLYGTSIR
Sequence of MAGI3_2, Q5TCQ9 (Q5TCQ9 398-503): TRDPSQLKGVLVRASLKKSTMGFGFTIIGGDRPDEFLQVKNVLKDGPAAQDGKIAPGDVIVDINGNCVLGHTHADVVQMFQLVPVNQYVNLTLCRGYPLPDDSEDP

Binder | pKd (DLG5_1, Q8TDM6) | pKd (MPP2, Q14168) | pKd (Inadl_3, Q8NI35) | pKd (GRASP, Q7Z6J2) | pKd (GRIP1_2, Q9Y3R0) | pKd (PDZRN3_1, Q9UPQ7) | pKd (ARHGAP21, Q5T5U3) | pKd (IL16_4, Q14005) | pKd (DLG2_2, Q15700) | pKd (SHANK1, Q9Y566) | pKd (SNTB1, Q13884) | pKd (MAGI2_5, Q86UL8) | pKd (NHERF2_2, Q15599) | pKd (GRIP2_3, Q9C0E4) | pKd (TX1BP3, O14907) | pKd (DFNB31_2, Q9P202) | pKd (LAP2, Q96RT1) | pKd (PARD3B_1, Q8TEW8) | pKd (GOPC, Q9HD26) | pKd (PARD3_3, Q8TEW0) | also measured
VKRNSKETVV [MARCHF3, Q86UD3] | below the threshold | below the threshold | 3.49 | below the threshold | below the threshold | 3.69 | below the threshold | below the threshold | 6.12 | below the threshold | 5.19 | 3.98 | below the threshold | below the threshold | 4.16 | below the threshold | 3.54 | below the threshold | below the threshold | below the threshold | pKd (MAGI1_1, Q96QZ7): below the threshold; pKd (HTRA4, P83105): below the threshold; pKd (MAGI3_2, Q5TCQ9): 5.72; pKd (HTRA2, O43464): below the threshold; pKd (FRMPD2_2, Q68DX3): 3.81; pKd (Inadl_4, Q8NI35): below the threshold
NIAESLESLV [PTPRZ1, P23471] | below the threshold | below the threshold | 4.13 | 3.74 | below the threshold | 4.22 | below the threshold | below the threshold | 4.72 | below the threshold | 4.68 | 5.47 | below the threshold | below the threshold | 4.26 | below the threshold | 4.25 | below the threshold | below the threshold | 4.18 | pKd (MAGI1_1, Q96QZ7): below the threshold; pKd (HTRA4, P83105): below the threshold; pKd (MAGI3_2, Q5TCQ9): 4.92; pKd (HTRA2, O43464): below the threshold; pKd (FRMPD2_2, Q68DX3): 4.66; pKd (Inadl_4, Q8NI35): below the threshold
RQKEVRESKC [SCN8A, Q9UQD0] | below the threshold | below the threshold | below the threshold | below the threshold | below the threshold | 4.02 | below the threshold | 3.68 | below the threshold | below the threshold | 4.99 | 3.61 | 3.57 | below the threshold | 3.96 | 4.37 | below the threshold | below the threshold | below the threshold | below the threshold | pKd (MAGI1_1, Q96QZ7): below the threshold; pKd (HTRA4, P83105): below the threshold; pKd (MAGI3_2, Q5TCQ9): 4.01; pKd (HTRA2, O43464): below the threshold; pKd (FRMPD2_2, Q68DX3): below the threshold; pKd (Inadl_4, Q8NI35): below the threshold
MQHQRTHTRV [ZSCAN30, Q86W11] | below the threshold | below the threshold | below the threshold | 4.34 | below the threshold | below the threshold | 3.92 | below the threshold | 4.76 | 4.08 | 4.15 | 3.64 | 3.67 | below the threshold | 3.57 | below the threshold | 3.89 | below the threshold | 4.41 | below the threshold | pKd (MAGI1_1, Q96QZ7): below the threshold; pKd (HTRA4, P83105): below the threshold; pKd (MAGI3_2, Q5TCQ9): 5.37; pKd (HTRA2, O43464): below the threshold; pKd (FRMPD2_2, Q68DX3): below the threshold; pKd (Inadl_4, Q8NI35): below the threshold
AQRARSPSDV [GPR12, P47775] | below the threshold | below the threshold | below the threshold | below the threshold | below the threshold | below the threshold | below the threshold | below the threshold | 3.49 | below the threshold | below the threshold | below the threshold | below the threshold | below the threshold | below the threshold | below the threshold | 3.51 | below the threshold | below the threshold | below the threshold | pKd (MAGI1_1, Q96QZ7): 3.67; pKd (HTRA4, P83105): below the threshold; pKd (MAGI3_2, Q5TCQ9): 3.5; pKd (HTRA2, O43464): below the threshold; pKd (FRMPD2_2, Q68DX3): below the threshold; pKd (Inadl_4, Q8NI35): below the threshold
EDGESWEYQI [TRPV6, Q9H1D0] | below the threshold | 3.57 | 5.33 | below the threshold | below the threshold | below the threshold | 3.57 | 3.5 | below the threshold | below the threshold | below the threshold | below the threshold | 3.67 | below the threshold | below the threshold | below the threshold | below the threshold | 3.85 | below the threshold | 5.35 | pKd (MAGI1_1, Q96QZ7): below the threshold; pKd (HTRA4, P83105): below the threshold; pKd (MAGI3_2, Q5TCQ9): below the threshold; pKd (HTRA2, O43464): below the threshold; pKd (FRMPD2_2, Q68DX3): below the threshold; pKd (Inadl_4, Q8NI35): below the threshold
